Experimental data published in the DeepSol protein solubility set.

Test: soluble on expression in E. coli; label from the status in PepcDB or PDB records

Row | Sequence | soluble on expression in E. coli
1 | MRKGGKGYFLTIRRDYVTVSYYLKYVKDIPLEFREIIDIFNNHKFEQYTQEQINKYTYTCNVRKIEDIDKYDEKNPTKFHEYTRGEACRCQTYNYFKDDEFIKRAKLKCIYYNMLFTESATVYSRHCPIIDLMHFAVYDIEYPPIFNTIVNITIEEYYYNDVSSVLNNKSDLVTKEKKYQLNDTITEIRDDYFDLWLFLKGETHGKRTLVNLSNDYIVIPSSPINNRDVIASDITRNCGLSQNSPLLKGCNYSSICNIMHPCLRKAMMLPKYMFDLSGKTCGKLGVSLNT | not soluble
2 | MCFIMSKRNTQLRRHTIVKLVNEQGEVSVEALSSQFETSEVTIRKDLASLEKNGQLLRRYGGAIALPKEVMHDELNEKVSVRKISLAKAAAKLIRDHNRIVIDSGSTTAALIQQLNDKRGLVVMTNSLHVANALNELENEPTLLMTGGTWDTHSESFQGKVAESVLRSYDFDQLFIGADGIDLDRGTTTFNELVGLSKVMAEVSREVIVMIESDKVGRKIPNLELSWDNIDVLVTDHELSDEFAKQIESHQVRVIRATVK | not soluble
3 | SNCRSEVLEVSVEGRQVEEAMLAVLHTVLLHRSTGKFHYKKEGTYSIGTVGIQDVDCDFIDFTYVRVSSEELDRALRKVVGEFKDALRNSGGDGLGQMSLEFYQKKKSRWPFSDECIPWEVWTVKVHVVALATEQERQICREKVGEKLCEKIINIVEVMSRHEYLPKMPTQSEVDNVFDTGLRDVQPYLYKISFQITEALGTSVTTTMRRLIKDTLAL | soluble
4 | MDDDILGLEDVTASEAFKIIYELSKASKIDADRSDAAKAQFTLLHSTLLQALQAERDLLDQAKALKRQKEEQEAAITGAGGVPGADDIDQLREDVEAALGEAALAQERQQLLQLEVTDLQRQRNDLGARMEELAAEHAAALQPVIAQARGEAAALVDELDEERRRVEAAHGELEDMKSKLAAVQEEIEAMGETKAVERANLVKVDPLPDKARRQSEAVAAILKSVQGQLESMNARYGEHDTQYKTAAEREQQLTEEHTKMLTALERGRVQVESKARHADDVRKDVELASIEADKILADQVELDLRVKNLALELKAESDHLNRRQREKELMLRQYRVADQQLKDARDMLPNLKFQVEQMHRDVNTLEARRRAQSRELSDVKRELDIQMAAFLHEEADGKEKVALFQLTYKEVAALEAELAALKREEAERDTILRDLGSQRDRVALAIAQKLSKVKDVQMTSRIKEVELAELKKIRKEVGRRIRDFEKLYDLVKNQRNKFVNLIQAASQSTTEMKDKLKVLQNELDILQNEVGIKDKLLQQQHTQHAANIAERDQLRVELGRLGMVFRDKQAVVDEQIAEVDKLNAIINGCEKEMLRLKKQYELVIEARNYTGIMLIDRNDELCVLYEKANILDEVIKSGQLELMRREDEARLLRLEVGELERSIGVTRRLVPSVPLLDNDVAALQKALFEARREAEALSLALENPSNQGRWRLLEGKIPDREELSAKIQALEERLNDKKEQLLEKELILEEITSLSDKLRVQAAEGRADTLELAQRVNEYQSKLRAVTRKIMATVSELSMYQASALKLGAEKEELEGAVSLASQRLEAGEPPTDDAEREWYRLERERHTVDAMAEERRAVAAALDARVAEVQSTAEPRPNAYIPEQLGIPKPYGSFAPFKPQEAGSTMRHIRKPSPKEVVI | not soluble
5 | MSLSKVRYGVVSTAKVAPRFIEGVRLAGNGEVVAVSSRTLESAQAFANKYHLPKAYDKLEDMLADESIDVIYVATINQDHYKVAKAALLAGKHVLVEKPFTLTYDQANELFALAESCNLFLMEAQKSVFIPMTQVIKKLLASGEIGEVISISSTTAYPNIDHVTWFRELELGGGTVHFMAPYALSYLQYLFDATITHASGTATFPKGQSDSQSKLLLQLSNGVLVDIFLTTRLNLPHEMIIYGTEGRLIIPHFWKTTHAKLVRNDTSARTIQVDMVSDFEKEAYHVSQMILEGQRVSHIMTPQLTLSGVKIIEDLYRSWGKEGHHHHHH | soluble
6 | EAPLLYGDSSPEIVLVGHGSTYGVIKEIVDIFSKDKKIAMMHFSQIYPFPERDRFDYIEFLKNANLVISVENNATGQFAKLMRAETGFEFARQILKYDGRPFTIEKLKEEIDACL | not soluble
7 | MAHHHHHHMSRKRVRAEDIHYWLLKSEPHKFSIDDLAKQKTSPWDGVRNYAARNNMRAMSVGDKVLFYHSNTKEPGVAGLAEVVRLAYDDFTALDKTSEYFDPKATKEKNPWKMVDVKFVARWDTVLTLHELKSRRELQKMALFTQRRLSVQPVSASEYAYILRMNEEQQRK | soluble
8 | IVSFYQEQIIRSALALKLHQYEDTGGIIAAGTTSLPESDGATRNWDYRYCWMRDTYYTLQAFNTIGHFEESEKYFHYIENIVANELDRIQPLYTLDCSKKIEEIELDLEGYKGNKPVRVGNDAYTHIQNDVYGQILASITPLFTDRRLLHGNQFSTDIVYKLLAFIDKTMNEKDAGLWEFRHLKQLHCYTFLFHWVGAKSALKIGQLYGDHELIRKSTATIDKAAEMIERCYDPVRKVYTQAVGSTYLDASCIQLISMHYLDPSSEKARLHLKAIEEDLMVKDGLLFRYKHEDDFGKPEVTFLVCAFWYVDALASVGRIDDAIKAFESLLTYTNHVGLLSEDVGLDGSQWGNFPQTYSHVGLMNSAYRIAKKLDRPS | not soluble
9 | MMPSQITRSSHSSLPEVAPASGDATGVSEQTPQQARTVAFFSSGELAVAFGRTSAAPEQDSVRLLSALQRELDKQHPSWHTVAQLCQSLAEVGTTEQGWHQLASEDQLPALRELLDRCTHRLADMPAAHASHDSLSQACEGLRTARLHQSVARLTARPSSLARAMADLLTLTHLDPETLGAEPPVISSYTLFSHFVRTAKQRTADLNDSLQRQPDAVVSLLRSHADTLNDLEMLPGALQALTENCQDAPARNELRELAEVAGALLQLLLEHDLLPRLEEISIEPGEA | not soluble
10 | MGSDKIHHHHHHMKTNYRLHMQQGSDYLKKFLEKHIDLLKKIPLFEGIKSDELEEMLECLGVVDKTYPKDSIIFSVGSEVTSIGIMLKGSAHIIKEDIEGNRNIVAELLPGDLFGEVFACTRLHKSNVTVTTTSSCEVLFIKFKSVTGICSSTCVFHNRLVENMLQLIAEKNILLHNKIELLSRKTTREKLLMYFSKQIEQTGSHQFTIPFSRNEMADFLCVDRSSMSRELGKMRDEGLLSFNKNKFEIFYFKK | not soluble
11 | RFNLFNYREATLIADYGHNPDAMEALVCAIDHIPAKKRTVVISAAGDRRNEDIRLQTRILGDVFDEVVLFQDKCQRGRADGEVLGLLREGLENAKRVRKVSEIRGEFKAIDTALTNLEAGELCLILIDQ | not soluble
12 | MNEALSSGKVKNGEFLTVYLKEKLPDRLHYSQSYRIPPIIGMVGEGLIVRQNRTNAQECYGDHGYDNKFFSMRTIFVGHGSRFRRGKKVPSFENVQIYSVVADILGLRPAPNNGSSLFPRSILLPFRATRGLE | not soluble
13 | MREWKSQDAWKQHSLRLCFGVWPGTEFLHRPRAVHRRSGVVCSQMQTEDSHPETPQVPKESLQEEKDSSPATDASFIQSQDGKTVFLDRRTERRIQRGFVLTERGPRSIWKPAGTSSQRNERVPRRAAARGGAGPPDTTPQLATVRVLVLGANHVAQRLAELLSSHSRVCGCYFVSETTDEAAIESMKKYAYALPLRSALNDDEVVRVAEWVLADYVFLVPTGETHDDGVSLKDKERLERTLAQNRVTFMDENLTGLLLENPSLIDALFRARDSLEA | not soluble
14 | MHMEQDVNAALRPAYRHRYLQKGHHHSRNAVVDHQELTEKLNRLTSTSSLGSSLPSLSSLHSNSSIGTMPSAKIGDGSTSSLPMSSAKPMSTQTSEPQLPDVPEPNESLHNKTIDEFQKDQEKCDRLKARKAELEMRLRQKMQELKDVCVEEGDITGEMPVEINDVVLPGDDFPRLKRRVGTAYSIPDELIKADKADKMSQLETDVELHRRIVAAASRLATDKNTNKSVRKKRQKDLQAARLRLNRLEQGLQQMRHSASKPDISSLTSDSSNSWTASNSSGPMLTMAMTKSCPTTPRGSVPDLRNGLDDEKDEFDENVEDRVSRRAPSAISRHSLSQRYSGVSSSSTSSGSDSMGLGLPPRPTSRKSQQQQTTPFDDQLDNPMICEIPPPPSSAAAHPLYENVGYRSTSYRSSYRQAHYPTIQDEHTQRKRAQSAHSISTDNGATGRTSTYSVPLNDAAQKFREYDYDDEEDSTPTMDLPSHLINVRRLTSSISCQAGFATASLDRRYSKLNGGRLSSGGGGSDDVVRQNVTTRITTFPVATSAATVILSGKPYSASELPRFQPPPPVARVTHMPRGSLPPYSSATMGAQSPAPPPNGKLPTNPQMEALLSYYKQQQQQQHQQQSRSAPSQQPKTATIV | not soluble
15 | MALKNVPFRSEVLAWNSDNLADYFRKLNYRDCEKAVKKYHIDGARFLNLTENDIQKFPKLRMPLLSKLSQDINKNEERRSIFTRKPQIPRFLEETESHEEDDGGWSSFEDDYESPNDDDPDGEDDGDYESPNEEEQALVDDAADYEPPPSNNEEALQSSILPPNSFHNTNSMYIDRPPTGKVSQQPPVPPLRPKPALPPLPTGRNHSPLSPPHPNHEEPSRSGNNKTAKLPAPSIDRSTKPPLDRSLAPLDREPFILGKKPPFSDKPSAPLGREHLPKIQKPPLPPAMDRHERNERLGPVTTRKPPVPRHGRGPDRRENDEDDVHQRPLPQPSLPSMSSNTFPSRSVQPSSKNTFPLAHMPGAFSESNIGFQQSASLPPYFSQGPGNRPPLRSEGRNLPLPVPNRPQPPSPGEEETPLDEEWYVSYITRPEAEAALRKINQDGTFLVRDSSKKTANNPYVLMVLYKDKVYNIQIRYQEESQVYLLGTGLRGKEDFLSVSDIIDYFRKMPLLLIDGKNRGSRYQCTLTHAAGCL | soluble
16 | MGSDKIHHHHHHMNLRNTAVFKFLVLTLGIISCQAYAEDTVIVNDHDISAIKDCWQKNSDDDTDVNVIKSCLRQEYNLVDAQLNKAYGEAYRYIEQVPRTGVKKPDTEQLNLLKKSQRAWLDFRDKECELILSNEDVQDLSDPYSESEWLSCMIIQTNTRTRQLQLYRNSEDFYPSPLTRG | not soluble
17 | GPGGALPTCPACHKITPRTEAPVSSVSNSLENALHTSAHSTEESLPKRPLGKHSKVSVEKIDLKGLSHTKNDRNVECSFEVLWSDSSITSVTKSSSEVTEFISKLCQLYPEENLEKLIPCLAGPDAFYVERNHVDLDSGLRYLASLPSHVLKNDHVRRFLSTSSPPQQLQSPSPGNPSLSKVGTVMGVSGRPVCGVAGIPSSQSGAQHHGQHPAGSAAPLPHCSHAGSAGSALAYRTQMDTSPAILMPSSLQTPQTQEQNGILDWLRKLRLHKYYPVFKQLSMEKFLSLTEEDLNKFESLTMGAKKKLKTQLELEKEKSERRCLNPSAPPLVTSSGVARVPPTSHVGPVQSGRGSHAAELRVEVEQPHHQLPREGSSSEYSSSSSSPMGVQAREESSDSAEENDRRVEIHLESSDKEKPVMLLNHFTSSSARPTAQVLPVQNEASSNPSGHHPLPPQMLSAASHITPIRMLNSVHKPERGSADMKLLSSSVHSLLSLEERNKGSGPRSSMKVDKSFGSAMMDVLPASAPHQPVQVLSGLSESSSMSPTVSFGPRTKVVHASTLDRVLKTAQQPALVVETSTAATGTPSTVLHAARPPIKLLLSSSVPADSAISGQTSCPNNVQISVPPAIINPRTALYTANTKVAFSAMSSMPVGPLQGGFCANSNTASPSSHPSTSFANMATLPSCPAPSSSPALSSVPESSFYSSSGGGGSTGNIPASNPNHHHHHHHQQPPAPPQPAPPPPGCIVCTSCGCSGSCGSSGLTVSYANYFQHPFSGPSVFTFPFLPFSPMCSSGYVSAQQYGGGSTFPVVHAPYSSSGTPDPVLSGQSTFAVPPMQNFMAGTAGVYQTQGLVGSSNGSSHKKSGNLSCYNCGATGHRAQDCKQPSMDFNRPGTFRLKYAPPAESLDSTD | soluble
